# Test results published in US20220010020A1 (Five Prime, published 2022).
# T1: FGFR2-IIIb (fibroblast growth factor receptor 2 IIIb splice form) (human, UniProt P21802 22-377)
# T1 construct: also called FGFR2b; KGFR
# T1 chain: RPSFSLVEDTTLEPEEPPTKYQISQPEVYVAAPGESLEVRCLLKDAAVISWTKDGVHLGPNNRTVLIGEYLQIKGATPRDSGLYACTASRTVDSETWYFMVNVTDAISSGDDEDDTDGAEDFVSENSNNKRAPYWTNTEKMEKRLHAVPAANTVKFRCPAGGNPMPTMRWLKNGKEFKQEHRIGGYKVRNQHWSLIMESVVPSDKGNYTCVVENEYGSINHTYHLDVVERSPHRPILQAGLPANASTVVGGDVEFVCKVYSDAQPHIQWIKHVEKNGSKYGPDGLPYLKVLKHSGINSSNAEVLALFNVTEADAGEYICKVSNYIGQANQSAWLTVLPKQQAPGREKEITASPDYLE
# B1: anti-FGFR2-IIIb antibody (afucosylated, humanized IgG1 monoclonal antibody), control sample incubated without hydrogen peroxide (antibody, V domains shown)
# VH: QVQLVQSGAEVKKPGSSVKVSCKASGYIFTTYNVHWVRQAPGQGLEWIGSIYPDNGDTSYNQNFKGRATITADKSTSTAYMELSSLRSEDTAVYYCARGDFAYWGQGTLVTVSS
# VL: DIQMTQSPSSLSASVGDRVTITCKASQGVSNDVAWYQQKPGKAPKLLIYSASYRYTGVPSRFSGSGSGTDFTFTISSLQPEDIATYYCQQHSTTPYTFGQGTKLEIKR
# notes: also called αFGFR2b; Sample 1
# B2: anti-FGFR2-IIIb antibody incubated with 0.1% hydrogen peroxide overnight at room temperature (force oxidized) (antibody, human IgG1, kappa, V domains shown)
# VH: B1 VH
# VL: B1 VL
# notes: Same antibody as m1 after peroxide treatment; also called +0.1% H2O2; 0.1% H2O2
# B3: anti-FGFR2-IIIb antibody incubated with 1.0% hydrogen peroxide overnight at room temperature (force oxidized) (antibody, human IgG1, kappa, V domains shown)
# VH: B1 VH
# VL: B1 VL
# notes: Same antibody as m1 after peroxide treatment; also called +1.0% H2O2; 1.0% H2O2
# B4: anti-FGFR2-IIIb antibody incubated with 0.01% hydrogen peroxide overnight at room temperature (force oxidized) (antibody, human IgG1, kappa, V domains shown)
# VH: B1 VH
# VL: B1 VL
# notes: Same antibody as m1 after peroxide treatment; also called +0.01% H2O2; 0.01% H2O2
# Assays:
# [1] = biological target: T1, FGFR2-IIIb (fibroblast growth factor …); assay: blocking ELISA (potency), forced oxidation study
# [2] = biological target: T1, FGFR2-IIIb (fibroblast growth factor …); assay: ELISA potency of forced oxidation samples
# [3] = biological target: T1, FGFR2-IIIb (fibroblast growth factor …); assay: blocking ELISA (potency), forced oxidation study; blocked ligand not named
Binder,"% Potency (Assay 1), against Reference [1]","% Potency (Assay 2), against Reference [1]",Potency By ELISA [2],IC50 [3]
B1,79%,89%,84,0.0272 mg/L
B2,78%,100%,89,0.0259 mg/L
B3,73%,93%,83,0.0257 mg/L
B4,98%,106%,102,0.0208 mg/L
